Data as given in US20220259593A1, “CONTROL OF MAMMALIAN GENE DOSAGE USING CRISPR” (The Regents of the University of California, priority 2019, published 2022).

B1: cr414 (nucleic acid)
guide: GTTTAAGAGCTAAGCTGGAAACAGCATAGCAAGTTTAAATAAGGCTAGTCCGTTATCAACTTGAAAAAGTGGCTCCGAGTCGGTGCT
modifications: listed as DNA, chemistry not fully specified
B2: cr909 (nucleic acid)
guide: GTTTAAGAGCTAAGCTGGAAACAGCATATCAAGTTTAAATAAGGCTAGTCCGTGATCAACTTGTAAAAGTGGCACCGAGTCGGTGCT
modifications: listed as DNA, chemistry not fully specified
B3: cr806 (nucleic acid)
guide: GTTTAAGAGCTAAGCTGGAAACAGCATAGCAAGTTTAAATAGGGCTAGTCCGTTATCAACTTGAAAAAGTGGCACCGAGTCGGTGCT
modifications: listed as DNA, chemistry not fully specified
B4: cr759 (nucleic acid)
guide: GTTTAAGAGCTAAGCTGGAAACAGCATAGCAAGTTTAAATAAGGCTCGTCCGTTATCAACTTGAGAAAGTGGCACCGAGTCGGTGCT
modifications: listed as DNA, chemistry not fully specified
B5: cr358 (nucleic acid)
guide: GTTTAAGAGCTAAGCTGGAAACAGCATAGCAAGTTTAAATAAGGTTAATCCGTTATCAAGTTGAAAAACTGGCACTGAGTCAGTGCT
modifications: listed as DNA, chemistry not fully specified
B6: cr013 (nucleic acid)
guide: GTTTGAGAGCTAAGCTGGAAACAGCATAGCAAGTTTAAATAAGGCTAGTCCGTTATCAACTTGAAAAAGTGGCACCGAGTCGGTGCT
modifications: listed as DNA, chemistry not fully specified
B7: cr396 (nucleic acid)
guide: GTTTAAGAGCTAAGCTGGAAACAGCATAGCAAGTTTAAATAAGGCTAGTCCGTTATCAACTTGAAAAAGTGGCAACAAGTTGTTGCT
modifications: listed as DNA, chemistry not fully specified
B8: cr286 (nucleic acid)
guide: GTTTAAGAGCTAAGCTGGAAACAGCATAGCAAGTTTAAATAAGGCGAGTCCGTTATCAACTTGAGAAAGTGGCACCGAGTCGGTGCT
modifications: listed as DNA, chemistry not fully specified
B9: cr206 (nucleic acid)
guide: GTTTAAGAGCTAAGCTGGAAACAGCATAGCAAGTTTAAATAAGGCTAGTCCGTTATCAACCTGAAAAAGTGGCACCGACTCGGTGCT
modifications: listed as DNA, chemistry not fully specified
B10: cr488 (nucleic acid)
guide: GTTTAAGAGCTAAGCTGGAAACAGCATAGCAAGTTTAAATAAGGCTAGTCCGTTATCAACTTGAAAAAGTGGGACCGAGTCGGTCCT
modifications: listed as DNA, chemistry not fully specified
B11: cr705 (nucleic acid)
guide: GTTTAAGAGCTAAGCTGGAAACAGCATAGCAAGTTTAAATAAGGCTAGTCCGTTATCAACTTGAAAAAGTGGCACGGAGTCCGTGCT
modifications: listed as DNA, chemistry not fully specified
B12: cr123 (nucleic acid)
guide: GTTTAAGAGCTAAGCTGGAAACAGCATAGCAAGTTTAAATAAGGCTAGTCCGTTATCAACGTGAAAAAGTGGCACCGAGTCGGTGCT
modifications: listed as DNA, chemistry not fully specified
B13: cr617 (nucleic acid)
guide: GTTTAAGAGCTAAGCTGGAAACAGCATAGCAAGTTTAAATAAGGTTAATCCGTTATCAGCGTGAAAACGCGGCACCGAGTCGGTGCT
modifications: listed as DNA, chemistry not fully specified
B14: cr781 (nucleic acid)
guide: GTTTAAGAGCTAAGCTGGAAACAGCATAGCAAGTTTAAATAAGGCTAGTCCGTTATCAACTTGAAAAAGTGGCACCGAGTCGGTCCT
modifications: listed as DNA, chemistry not fully specified
B15: cr402 (nucleic acid)
guide: GTTTAAGAGCTAAGCTGGAAACTGCATAGCAAGTTTAAATAAGGCTAGTCCGTTATCAACTTGAAAAAGTGGCACCGAGTCGGTGCT
modifications: listed as DNA, chemistry not fully specified
B16: cr694 (nucleic acid)
guide: GTTTAAGAGCTAAGCTGGAAACAGCATAGCAAGTTTAAATAAGGCTAGTCCGGTATCAACTTGTAAAAGTGGCACCGAGTCGGTGCT
modifications: listed as DNA, chemistry not fully specified
B17: cr702 (nucleic acid)
guide: GTTTAAGAGCTAAGCTGGAAACAGCATAGCAAGTTTAAATAAGGCTAGTCCGTTATCAACTTGAAAAAGTGCCACCGAGTCGGTGCT
modifications: listed as DNA, chemistry not fully specified
B18: cr984 (nucleic acid)
guide: GTTTAAGAGCTAAGCTGGAAACAGCATAGCAAGTTTAAATAAGGCTAGTCCGTTATCAACTTGAAAAAGTGGCACCGAGTCGGTGGT
modifications: listed as DNA, chemistry not fully specified
B19: cr749 (nucleic acid)
guide: GTTTAAGAGCTAAGCTGGAAACAGCATAGCGAGTTTAAATAAGGCTAGTCCGTCATCAACTTGAAAAAGTGGCACCGCGTCGGTGCT
modifications: listed as DNA, chemistry not fully specified
B20: cr869 (nucleic acid)
guide: GTTTAAGAGCTAAGCTGGAAACAGCATAGCAAGTTTAAATAAGGCTAGTCCGTTATCAACTTGAAAAAGAGGCACCGAGTCGGTGCT
modifications: listed as DNA, chemistry not fully specified
B21: cr729 (nucleic acid)
guide: GTTTAAGAGCTAAGCTGGAAATAGCATAGCAAGTTTAAATAAGGCTAGTCCGTTATCAACTTGAAAAAGTGGCACCGAGTCGGTGCT
modifications: listed as DNA, chemistry not fully specified
B22: cr520 (nucleic acid)
guide: GTTTAAGAGCTAAGCTGGAAACAGCATAGCAAGTTTAAATAAGGCTAGTCCGATATCAACTTGCAAAAGTGGCACCGAGTCGGTGCT
modifications: listed as DNA, chemistry not fully specified
B23: cr626 (nucleic acid)
guide: GTTTAAGAGCTAAGCTGGAAACAGCATAGCAAGTTTAAATAAGGCTAGTCCGTTATCAACTTGACAAAGTGGCACCGCGTCGGTGCT
modifications: listed as DNA, chemistry not fully specified
B24: cr367 (nucleic acid)
guide: GTTTAAGAGCTAAGCTGGAAACAGCATAGCAAGTTTAAATAAGACTAGTTCGTTATCAACTCGAAAGAGTGGTACCGAGTCGGTACT
modifications: listed as DNA, chemistry not fully specified

system: K562 CRISPRi cells; assay: Constant region variant library pooled growth screen, K562; format: cell-based, human; conditions: sgRNA constant region variants; activity relative to the original, un-modified constant region cr995
From the text: We calculated relative activities for each targeting sequence:constant region pair by normalizing its phenotype to that of the targeting sequence paired with the unmodified constant region, identifying 409 constant region variants that on average conferred intermediate activity (0.1-0.9, FIG. 5B). Ten variants selected for individual evaluation also mediated intermediate levels of mRNA knockdown (FIG. 6B). Mapping the activities of constant region variants with single base substitutions onto the structure recapitulated known relationships between constant region structure and function (FIG. 5C).
The sequences in the library of modified constant regions were derived from the sgRNA (F+E) optimized sequence (23) modified to include a BlpI site (15). Each modified constant region was paired with 36 sgRNA targeting sequences (3 sgRNAs targeting each of 10 essential genes and six non-targeting negative control sgRNAs). The cloning strategy (described below) allowed the mutation of most positions in the sgRNA constant region. A variety of modifications were made, including substitutions of all single bases not in the BlpI restriction site (which is used for cloning), double substitutions including all substitutions at base-paired position pairs not before or in the BlpI site, and a variety of triple, quadruple, and sextuple substitutions, including base-pair-preserving substitutions at adjacent base-pairs.
The library was ordered and cloned in two parts. One part consisted of ˜100 modifications to the eight bases upstream of the BlpI restriction site. Constant region variants with mutations in this section were paired with each of the 36 targeting sequences, ordered as a pooled oligonucleotide library (Twist Biosciences), and cloned into pCRISPRia-v2 as described above. The second part consisted of ˜900 modifications to the 71 bases downstream of the BlpI restriction site. This part was cloned in two steps. First, all 36 targeting sequences were individually cloned into pCRISPRia-v2 as described above. The vectors were then pooled at an equimolar ratio and digested with BlpI (NEB) and XhoI (NEB). The modified constant region variants were ordered as a pooled oligonucleotide library (Twist Biosciences), PCR amplified with Phusion polymerase (NEB), digested with BlpI (NEB) and XhoI (NEB), and ligated into the digested vector pool, in a manner identical to previously published protocols and as described above, except for the different restriction enzymes.
Screens with the compact mismatched sgRNA library and the constant region library were conducted largely as described above, with smaller modifications during the screening procedure and an updated sequencing library preparation protocol. Briefly, the libraries were transduced in duplicate into K562 CRISPRi (both libraries) or HeLa CRISPRi cells (compact mismatched sgRNA library) as described above. K562 replicates were maintained separately in 0.15 to 0.3 L of RPMI-1640 in 0.3 L spinner flasks for the course of the screen. HeLa replicates were maintained in sets of ten 15-cm plates. Cells were selected with puromycin as described above (K562: 1 day of 0.75 μg/mL and 1 day of 0.85 μg/mL; HeLa: 2 days of 0.8 μg/mL and 1 day of 1 μg/mL). The remainder of the screen was carried out at >1000× library coverage (K562 compact mismatched sgRNA library: >2000×; HeLa compact mismatched sgRNA library: >1000×; K562 constant region library: >2000×). Multiple samples were harvested after 4 to 8 days of growth. For the drug screen, 10 μM lovastatin (ApexBio) or an equivalent volume of DMSO (vehicle) was added to flasks at t=0, and 3 days later cells were pelleted and re-suspended in fresh medium. Lovastatin (12 μM) or DMSO was again added after 5 and 9 days of growth, with media exchanges 3 days after drug supplementation. Multiple samples were harvested after 4 to 8 days for the K562 and HeLa growth screens. […]

Molecule	Mean relative activity
B1	0.8852
B2	0.8864
B3	0.8861
B4	0.8842
B5	0.886
B6	0.8907
B7	0.8826
B8	0.885
B9	0.8946
B10	1.06
B11	0.8901
B12	0.8871
B13	1.058
B14	0.8813
B15	0.8977
B16	0.8963
B17	0.8977
B18	0.8858
B19	0.8857
B20	0.8861
B21	0.8793
B22	0.8874

same assay, conditions: sgRNA constant region variants; activity relative to the un-modified constant region cr995

Molecule	Mean relative activity
B23	0.9006
B24	0.8998
